Test results from patent US20150148405A1, “Expression Construct for a Lin28-Resistant Let-7 Precursor MicroRNA” (THE JOHNS HOPKINS UNIVERSITY, priority 2012, published 2015).

Columns and labels:
Type in all cases: cell-based, mouse
KCC2 mRNA = test: RT-qPCR of mRNA abundance; details: control neurons, BDNF 100 ng/mL, 2 hours
Description: For analysis of mRNA abundance: 1 μg of RNA was immediately reverse-transcribed into cDNA with a taqman reverse transcripton kit (Applied Biosystems) and a mixture of random decamer and oligo(dT) primers in a final volume of 30 μL and subjected to TaqMan Gene Expression Assays (Applied Biosystems) for GluR1 (assay ID: Mm00433753_m1), CaMKIIu (Mm00437967_m1), Homer2 (Mm01314936_m1), KCC2 (Mm00803929_m1), Kv1.1 (Mm00439977_s1), GW182 (Mm00523487_m1), GAPDH (Mm99999915_g1), and β-tubulin-III (Mm00727586_s1). RT-qPCR was performed using a Stratagene Mx3000P machine and software in 20 μL reactions on a 96-well optical plate at 95° C. for 5 min, followed by 40 cycles of 95° C. for 30 sec, 55° C. for 1 min and 72° C. for 30 sec. The threshold and threshold cycle (Ct) values were determined using default settings. Standard curves were constructed and used for quantitation of target transcript abundance. In this method, 1:5 dilution series of an independent Standard sample are amplified to generate a curve that relates the initial quantity of the specific target in the Standard samples to the Ct. The standard curve is then used to derive by interpolation the initial sample template quantities based on their Ct values. All derived quantities were further normalized to neuron-specific β-tubulin III, whose translational status is unchanged by BDNF (Schratt et al., 2004). […]

[1] = tested on: miRNA reporter (CXCR4 shRNA); test: CXCR4 miRNA-reporter luciferase assay; details: BDNF stimulation, Actinomycin-D
Description: The following CXCR4 siRNA/miRNA reporter assay constructs (Addgene) were used: siRNA reporter (PCD FLIP, Plasmid 12567), miRNA reporter (PCD FL4X, 12565), control luciferase reporter (PCD FLOX, 12563), and CXCR4 shRNA (pLKO.1 puro CXCR4 siRNA-2, 12272) (Wang et al., 2006). Let-7 luciferase reporters with wild-type or mutated Let-7 miRNA binding sites were gifts from G. Hannon (Liu et al., 2005b). 3′UTR reporters were constructed by inserting 3′UTRs from GluR1, CaMKIIu or KCC2 downstream of luciferase in pGL3-Control vector (Promega). A Lin28-resistant Let-7 pre-miRNA was generated by mutation of the conserved Lin28 “GGAG” recognition motif to “GtAt” in the terminal loop of pLV-hsa-let-7a-1 (Biosettia). […]
44 hours post-transfection, hippocampal cultures were treated with serum-reduced media (0.5% B27) and Actinomycin-D (0.5 ng/mL) as previously described, followed by BDNF stimulation 100 ng/mL for 4 hours. Cell lysates were collected in 1×lysis buffer (reporter lysis buffer, Promega), and luciferase (Promega) and chemiluminescent β-gal (Roche) reporter assays carried out according to manufacturer instructions using a plate-reading luminometer (Perkin Elmer). […] When required, fold change was calculated by dividing normalized stimulated samples by normalized unstimulated samples.

phospho-ERK = test: Immunoblotting for phospho-ERK; details: BDNF-stimulated neurons, Actinomycin-D
Description: (§1) Primary cultures of mouse hippocampal neurons (DIV 14 15) were incubated in serum-reduced medium (0.5% B27 supplement) for 2 hours, followed by […] Actinomycin-D for 10-20 min. Bath application of BDNF (100 ng/mL) was for designated periods (5 min-2 hours). The cultures were washed 3 times and harvested on ice with lysis buffer (50 mM Hepes, 150 mM NaCl, 10% Glycerol, 1 mM EDTA, 1% Triton-X-100, 0.2% SDS) plus freshly added protease inhibitor cocktail (Roche) and PMSF. Protein concentration was determined by Bradford Assay. If required, lysates were treated with Lambda Protein Phosphatase according to manufacturer's instructions (New England Biolabs […]). Equal amounts of lysate protein were resolved on SDS-PAGE gels, and electrotransferred to PVDF membrane. […]

TRBP = test: Immunoblotting for TRBP; details: 5 min after BDNF; +/-0.86
Description: as §1

B1: BDNF: brain-derived neurotrophic factor, a neurotrophin used to stimulate hippocampal neurons (protein, UniProt P23560 19-247, looked up)
Neurotrophic factor BDNF …: APMKEANIRGQGGLAYPGVRTHGTLESVNGPKAGSRGLTSLADTFEHVIEELLDEDQKVRPNEENNKDADLYTSRVMLSSQVPLEPPLLFLLEEYKNYLDAANMSMRVRRHSDPARRGELSVCDSISEWVTAADKKTAVDMSGGTVTVLEKVPVSKGQLKQYFYETKCNPMGYTKEGCRGIDKRHWNSQCRTTQSYVRALTMDSKKRIGWRFIRIDTSCVCTLTIKRGR
KCC2 mRNA
  KCC2 mRNA levels: reduced mRNA levels
[1]
  miRNA-mediated suppression of miRNA reporter by shCXCR4: greatly enhanced miRNA-mediated suppression
phospho-ERK
  phospho-ERK induction: rapidly induced phospho-ERK
TRBP
  total TRBP protein levels, fold increase: 2.61 fold
